Experimental data: article PMC1361355

Columns and labels:
ephrinB2 (Homo sapiens) = ephrinB2 (Homo sapiens) (UniProt P52799); conditions: cited from earlier work
[1] = target: human ephrinB2 stably expressed on CHO-pgsA745 cells (CHO-B2) (human) (UniProt P52799); assay: flow cytometry on cells

Chain of EphB4 (P54760 16-539): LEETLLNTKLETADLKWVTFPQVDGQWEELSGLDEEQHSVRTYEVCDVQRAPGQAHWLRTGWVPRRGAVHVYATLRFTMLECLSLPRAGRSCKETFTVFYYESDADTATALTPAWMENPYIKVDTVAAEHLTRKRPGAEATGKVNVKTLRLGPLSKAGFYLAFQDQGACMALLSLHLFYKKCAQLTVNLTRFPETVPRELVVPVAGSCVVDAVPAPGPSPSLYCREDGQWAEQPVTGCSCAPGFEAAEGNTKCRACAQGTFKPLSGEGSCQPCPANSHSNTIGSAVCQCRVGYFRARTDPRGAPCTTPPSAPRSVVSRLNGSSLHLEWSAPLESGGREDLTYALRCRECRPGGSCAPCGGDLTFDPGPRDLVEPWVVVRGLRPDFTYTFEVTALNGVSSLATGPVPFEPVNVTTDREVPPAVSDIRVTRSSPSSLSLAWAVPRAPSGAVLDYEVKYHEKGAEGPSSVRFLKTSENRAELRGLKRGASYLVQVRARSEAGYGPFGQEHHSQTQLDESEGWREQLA
Chain of ephrinB2 (Homo sapiens) (P52799 28-229): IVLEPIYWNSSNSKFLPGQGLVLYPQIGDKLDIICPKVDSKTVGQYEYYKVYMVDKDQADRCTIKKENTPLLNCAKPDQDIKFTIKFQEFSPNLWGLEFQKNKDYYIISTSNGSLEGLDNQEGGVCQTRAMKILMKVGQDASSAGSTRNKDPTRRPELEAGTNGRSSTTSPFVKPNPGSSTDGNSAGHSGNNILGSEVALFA

| Substance | Kd (ephrinB2 (Homo sapiens)) | Kd [1] |
| --- | --- | --- |
| EphB4 (from UniProt P54760) | 0.5 nM |  |
| NiV-G-Fc, a fusion construct between the ectodomain of NiV-G and the Fc region of human IgG1 (from UniProt Q9IH62 71-602) (Fc fusion) |  | 0.06 nM |
